Substitutions are numbered along the chain they refer to.
T1: FX zymogen (UniProt P00742 41-179; P00742 183-488)
T1 chain 1: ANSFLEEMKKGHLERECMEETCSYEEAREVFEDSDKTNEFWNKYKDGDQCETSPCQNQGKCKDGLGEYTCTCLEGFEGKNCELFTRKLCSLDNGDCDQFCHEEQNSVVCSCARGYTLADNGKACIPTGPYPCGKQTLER
T1 chain 2: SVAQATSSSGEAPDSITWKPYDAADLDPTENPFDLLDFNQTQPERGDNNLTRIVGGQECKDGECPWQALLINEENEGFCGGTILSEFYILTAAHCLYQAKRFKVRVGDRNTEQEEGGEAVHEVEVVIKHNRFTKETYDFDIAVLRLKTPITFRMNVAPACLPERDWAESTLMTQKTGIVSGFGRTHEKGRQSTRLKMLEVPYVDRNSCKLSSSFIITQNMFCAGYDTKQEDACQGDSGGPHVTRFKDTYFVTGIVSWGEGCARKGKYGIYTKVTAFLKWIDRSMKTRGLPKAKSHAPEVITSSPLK

B1: BIIB-12-1325 (antibody, V domains shown)
VH: QVQLVQSGAEVKKPGASVKVSCKASGYTFTSYYMVWVRQAPGQGLEWMGIINPSGGSTSYAQKFQGRVTMTRDTSTSTVYMELSSLRSEDTAVYYCARGGRYMLDPWGQGTLVTVSS
VL: DIQMTQSPSTLSASVGDRVTITCRASQSISSWLAWYQQKPGKAPKLLIYKASSLESGVPSRFSGSGSGTEFTLTISSLQPDDFATYYCQQSNRYPRTFGGGTKVEIK
B2: BIIB-12-914 (antibody, V domains shown)
VH: QVQLVQSGAEVKKPGASVKVSCKASGYTFTSYYMHWVRQAPGQGLEWMGIINPSGGSTSYAQKFQGRVTMTRDTSTSTVYMELSSLRSEDTAVYYCARAPRYRGTMDVWGQGTTVTVSS
VL: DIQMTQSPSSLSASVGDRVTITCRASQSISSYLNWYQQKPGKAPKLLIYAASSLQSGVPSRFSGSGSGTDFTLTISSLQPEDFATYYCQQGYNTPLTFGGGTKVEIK
B3: BIIB-12-1318 (antibody, V domains shown)
VH: QVQLVESGGGVVQPGRSLRLSCAASGFTFSSYGMHWVRQAPGKGLEWVAVISYDGSNKYYADSVKGRFTISRDNSKNTLYLQMNSLRAEDTAVYYCARKGDYRSGSYSGRAFGIWGQGTMVTVSS
VL: EIVLTQSPATLSLSPGERATLSCRASQSVSSYLAWYQQKPGQAPRLLIYDASNRATGIPARFSGSGSGTDFTLTISSLEPEDFAVYYCQQLNNWPPTFGGGTKVEIK
B4: BIIB-12-1310 (antibody, V domains shown)
VH: EVQLVESGGGLVKPGGSLRLSCAASGFTFSSYSMNWVRQAPGKGLEWVSSISSSSSYIYYADSVKGRFTISRDNAKNSLYLQMNSLRAEDTAVYYCARLGGYGSSQRYFDLWGRGTLVTVSS
VL: B3 VL with S31R, Q89E, L91A, N92S
B5: BIIB-12-1297 (antibody, V domains shown)
VH: QVQLVESGGGVVQPGRSLRLSCAASGFTFSSYGMHWVRQAPGKGLEWVAVISYDGSNKYYADSVKGRFTISRDNSKNTLYLQMNSLRAEDTAVYYCARSGGQTHRRSMDVWGQGTTVTVSS
VL: B3 VL with S31R, L91G
B6: BIIB-12-899 (antibody, V domains shown)
VH: QVQLVQSGAEVKKPGASVKVSCKASGYTFTSYYMHWVRQAPGQGLEWMGIINPSGGSTSYAQKFQGRVTMTRDTSTSTVYMELSSLRSEDTAVYYCARGPRTSSPLYFDLWGRGTLVTVSS
VL: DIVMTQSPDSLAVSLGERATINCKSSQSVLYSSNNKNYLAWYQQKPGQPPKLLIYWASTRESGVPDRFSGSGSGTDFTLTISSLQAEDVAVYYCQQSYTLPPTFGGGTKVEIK
B7: BIIB-12-935 (antibody, V domains shown)
VH: QVQLVESGGGVVQPGRSLRLSCAASGFTFSSYGMHWVRQAPGKGLEWVAVISYDGSNKYYADSVKGRFTISRDNSKNTLYLQMNSLRAEDTAVYYCARELEYGHYGMDVWGQGTTVTVSS
VL: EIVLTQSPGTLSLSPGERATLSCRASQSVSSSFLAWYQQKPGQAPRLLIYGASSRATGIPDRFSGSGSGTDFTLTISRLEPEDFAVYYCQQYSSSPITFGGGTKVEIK
B8: BIIB-12-1315 (antibody, V domains shown)
VH: QVQLVQSGAEVKKPGASVKVSCKASGYTFTSYYMVWVRQAPGQGLEWMGIINPSGGSTSYAQKFQGRVTMTRDTSTSTVYMELSSLRSEDTAVYYCARGRPSSKRVTYFDYWGQGTLVTVSS
VL: EIVMTQSPATLSVSPGERATLSCRASQSVSSNLAWYQQKPGQAPRLLIYGASTRATGIPARFSGSGSGTEFTLTISSLQSEDFAVYYCQQVFNWPPWTFGGGTKVEIK
B9: BIIB-12-913 (antibody, V domains shown)
VH: QVQLVQSGAEVKKPGASVKVSCKASGYTFTSYGISWVRQAPGQGLEWMGWISAYNGNTNYAQKLQGRVTMTTDTSTSTAYMELRSLRSDDTAVYYCARGGVSRFWGQGTLVTVSS
VL: B8 VL with V91Y, F92A, N93P, W94Y, W97L
B10: BIIB-12-1319 (antibody, V domains shown)
VH: QVQLVESGGGVVQPGRSLRLSCAASGFTFSSYGMHWVRQAPGKGLEWVAVISYDGSNKYYADSVKGRFTISRDNSKNTLYLQMNSLRAEDTAVYYCARTGYHRSVYYWGQGTLVTVSS
VL: EIVMTQSPATLSVSPGERATLSCRASQSVSSNLAWYQQKPGQAPRLLIYGASTRATGIPARFSGSGSGTEFTLTISSLQSEDFAVYYCQQASNFPPTFGGGTKVEI
B11: BIIB-12-1324 (antibody, V domains shown)
VH: QVQLVQSGAEVKKPGASVKVSCKASGYTFTSYYMVWVRQAPGQGLEWMGIINPSGGSTSYAQKFQGRVTMTRDTSTSTVYMELSSLRSEDTAVYYCARLPRYSKRGLDVWGQGTMVTVSS
VL: EIVMTQSPATLSLSPGERATLSCRASQSVSSYLAWYQQKPGQAPRLLIYDSSNRATGIPARFSGSGSGTDFTLTISSLEPEDFAVYYCQQLVSWPTFGGGTKVEIK
B12: BIIB-12-1317 (antibody, V domains shown)
VH: QVQLVESGGGVVQPGRSLRLSCAASGFTFSSYGMHWVRQAPGKGLEWVAVISYDGSNKYYADSVKGRFTISRDNSKNTLYLQMNSLRAEDTAVYYCARGVGGHDTRWGQGTLVTVSS
VL: DIQMTQSPSSVSASVGDRVTITCRASQGISSWLAWYQQKPGKAPKLLIYAASSLQSGVPSRFSGSGSGTDFTLTISSLQPEDFATYYCQQRHSLPPTFGGGTKVEIK
B13: BIIB-12-909 (antibody, V domains shown)
VH: QVQLVESGGGVVQPGRSLRLSCAASGFTFSSYGMHWVRQAPGKGLEWVAVISYDGSNKYYADSVKGRFTISRDNSKNTLYLQMNSLRAEDTAVYYCAKGKHRRRSFDIWGQGTMVTVSS
VL: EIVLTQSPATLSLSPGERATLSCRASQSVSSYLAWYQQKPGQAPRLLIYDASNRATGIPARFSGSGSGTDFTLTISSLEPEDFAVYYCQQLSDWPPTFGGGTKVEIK

Biological target: T1, FX zymogen
Assay: BLI

Kd [nM]	Binder
17.8	B1
48.1	B2
56.1	B3
46.1	B4
26.8	B5
34.2	B6
38.8	B7
53.2	B8
78.5	B9
31	B10
67.7	B11
27.1	B12
69.7	B13

Reference: patent US20230192896A1 (published 2023)
